Two molecules from US10646622B2, “Biologically active implants” (priority 1998, dated 2020) can be followed below.

In this data set the test system is fracture of the right tibia. Format: in vivo, Sprague Dawley rats. The protocol: In an experiment with animals, tests were conducted on 60 such animals (5-months-old female Sprague Dawley rats). All test animals were subjected to a standardized fracture of the right tibia. Differently coated titanium wires (1.0 mm in diameter) were then implanted in the repositioned tibiae as intramedullary supports.
Depending on the group assignments as specified below 2 mg/kg of a rat-specific recombinant growth hormone (r-rGH) or a placebo was subcutaneously injected daily for a period of time up to 42 days. At various time points (0 d, 4 d, 7 d, 14 d, 21 d, 28 d, 35 d, and 42 d) and after administration of an anaesthetic inhalant, x-rays were taken in two planes, 1.25 ml of blood was taken from each by the retrobulbar method (deep-frozen at −80° C. (−112° F.)), and their weight and body temperature were measured. On day 42, the fractured and the unfractured tibiae, along with the periosteum, were separately prepared and subjected to biomechanical tests (torsional load-torsional stiffness).
Group Assignments • Group I: Fracture of the right tibia—uncoated implant— • Systemic application of a placebo (control group) • Group II: Fracture of the right tibia—implant coated with poly-D,L-lactide 203— • Systemic application of a placebo • Group III: Fracture of the right tibia—implant coated with poly-D,L-lactide— • Systemic application of (r-rGH) • Group IV: Fracture of the right tibia—implant coated with poly-D,L-lactide and growth factors IGF-I (5%) and TGF-β (1%)— • Systemic application of a placebo • Group V: Fracture of the right tibia—implant coated with poly-D,L-lactide and growth factors IGF-I (5%) and TGF-β (1%)— • Systemic application of (r-rGH)
The coated implants were produced as indicated in Example 1.

With poly(D,L) lactide [PDLLA], where the note is “rat, in vivo”, the “differences in weight and temperature among placebo groups I, II and IV” value is “No major differences”.

B1: r-rGH: rat-specific recombinant growth hormone, subcutaneously injected (protein, UniProt P01244 27-216, looked up)
Somatotropin: FPAMPLSSLFANAVLRAQHLHQLAADTYKEFERAYIPEGQRYSIQNAQAAFCFSETIPAPTGKEEAQQRTDMELLRFSLLLIQSWLGPVQFLSRIFTNSLMFGTSDRVYEKLKDLEEGIQALMQELEDGSPRIGQILKQTYDKFDANMRSDDALLKNYGLLSCFKKDLHKAETYLRVMKCRRFAESSCAF
In turn, B1 gave a body weight increase (2 mg/kg s.c. daily, compared to placebo, p<0.05) of 13%. Besides, under “day 42, systemic 2 mg/kg s.c. daily with implant coated with poly-D,L-lactide (Group III), p<0.05”, the maximum torsional load result is “significant increase”.
